# According to patent publication US20230382997A1 (published 2023):
# Changes are numbered by the printed parent chain.
# T1: MAGE B2 peptide on HLA-A*02:01 (human)
# T1 peptide: GVYDGEEHSV
# T2: CT 83 peptide on HLA-B*44:02 (human)
# T2 peptide: GEMSSNSTAL
# T3: MAGE A3 peptide on HLA-A*01:01 (human)
# T3 peptide: EVDPIGHLY
# T4: CT 83 peptide on HLA-A*02:01 (human)
# T4 peptide: LLASSILCA
# B1: TCR26 (TCR, V domains shown)
# Valpha: GENVEQHPSTLSVQEGDSAVIKCTYSDSASNYFPWYKQELGKRPQLIIDIRSNVGEKKDQRIAVTLNKTAKHFSLHITETQPEDSAVYFCAASSLREGYSTLTFGKGTMLLVSP
# Vbeta: NAGVTQTPKFRVLKTGQSMTLLCAQDMNHEYMYWYRQDPGMGLRLIHYSVGEGTTAKGEVPDGYNVSRLKKQNFLLGLESAAPSQTSVYFCASSSTDLNEQFFGPGTRLTVL
# B2: TCR28 (TCR, V domains shown)
# Valpha: AQKITQTQPGMFVQEKEAVTLDCTYDTSDQSYGLFWYKQPSSGEMIFLIYQGSYDEQNATEGRYSLNFQKARKSANLVISASQLGDSAMYFCAMRGDPQGAQKLVFGQGTRLTINP
# Vbeta: ETGVTQTPRHLVMGMTNKKSLKCEQHLGHNAMYWYKQSAKKPLELMFVYSLEERVENNSVPSRFSPECPNSSHLFLHLHTLQPEDSALYLCASSQGRGKNIQYFGAGTRLSVL
# B3: TCR30 (TCR, V domains shown)
# Valpha: EDKVVQSPLSLVVHEGDTVTLNCSYEVTNFRSLLWYKQEKKAPTFLFMLTSSGIEKKSGRLSSILDKKELFSILNITATQTGDSAVYLCAVVPDNTDKLIFGTGTRLQVFP
# Vbeta: GAGVSQSPRYKVTKRGQDVALRCDPISGHVSLYWYRQALGQGPEFLTYFNYEAQQDKSGLPNDRFSAERPEGSISTLTIQRTEQRDSAMYRCASSWGGSNTGELFFGEGSRLTVL
# B4: TCR29 (TCR, V domains shown)
# Valpha: AQKVTQAQTEISVVEKEDVTLDCVYETRDTTYYLFWYKQPPSGELVFLIRRNSFDEQNEISGRYSWNFQKSTSSFNFTITASQVVDSAVYFCALSEAWGNAGNMLTFGGGTRLMVKP
# Vbeta: GAGVSQSPRYKVTKRGQDVALRCDPISGHVSLYWYRQALGQGPEFLTYFNYEAQQDKSGLPNDRFSAERPEGSISTLTIQRTEQRDSAMYRCASSPGQQNTEAFFGQGTRLTVV
# B5: TCR32 (TCR, V domains shown)
# Valpha: ILNVEQSPQSLHVQEGDSTNFTCSFPSSNFYALHWYRWETAKSPEALFVMTLNGDEKKKGRISATLNTKEGYSYLYIKGSQPEDSATYLCAFIVHQAGTALIFGKGTTLSVSS
# Vbeta: B4 Vbeta with P96L, Q98L, Q99L, N100Y, T101N, A103Q, Q107P, V114L
# B6: TCR33 (TCR, V domains shown)
# Valpha: AQSVTQLGSHVSVSEGALVLLRCNYSSSVPPYLFWYVQYPNQGLQLLLKYTSAATLVKGINGFEAEFKKSETSFHLTKPSAHMSDAAEYFCAVSDSSYKLIFGSGTRLLVRP
# Vbeta: DAGVIQSPRHEVTEMGQEVTLRCKPISGHDYLFWYRQTMMRGLELLIYFNNNVPIDDSGMPEDRFSAKMPNASFSTLKIQPSEPRDSAVYFCASQSGDTQYFGPGTRLTVL
# B7: TCR54 (TCR, V domains shown)
# Valpha: EDQVTQSPEALRLQEGESSSLNCSYTVSGLRGLFWYRQDPGKGPEFLFTLYSAGEEKEKERLKATLTKKESFLHITAPKPEDSATYLCAVYNQAGTALIFGKGTTLSVSS
# Vbeta: EAQVTQNPRYLITVTGKKLTVTCSQNMNHEYMSWYRQDPGLGLRQIYYSMNVEVTDKGDVPEGYKVSRKEKRNFPLILESPSPNQTSLYFCASSLYSTDTQYFGPGTRLTVL
# B8: TCR2 (TCR, V domains shown)
# Valpha: ILNVEQSPQSLHVQEGDSTNFTCSFPSSNFYALHWYRWETAKSPEALFVMTLNGDEKKKGRISATLNTKEGYSYLYIKGSQPEDSATYLCAFSNARLMFGDGTQLVVKP
# Vbeta: DTAVSQTPKYLVTQMGNDKSIKCEQNLGHDTMYWYKQDSKKFLKIMFSYNNKELIINETVPNRFSPKSPDKAHLNLHINSLELGDSAVYFCASSQEAGTGSYNEQFFGPGTRLTVL
# B9: TCR346 (TCR)
# alpha TRAV29DV5 TRAJ48 CDR3: CAARDISNFGNEKLTF
# Vbeta: GAVVSQHPSRVICKSGTSVKIECRSLDFQATTMFWYRQFPKQSLMLMATSNEGSKATYEQGVEKDKFLINHASLTLSTLTVTSAHPEDSSFYICSARDHTSGTYEQYFGPGTRLTVT
# B10: TCR4 (TCR, V domains shown)
# Valpha: AQSVAQPEDQVNVAEGNPLTVKCTYSVSGNPYLFWYVQYPNRGLQFLLKYITGDNLVKGSYGFEAEFNKSQTSFHLKKPSALVSDSALYFCAVRDAMGGSYIPTFGRGTSLIVHP
# Vbeta: DGGITQSPKYLFRKEGQNVTLSCEQNLNHDAMYWYRQDPGQGLRLIYYSQIVNDFQKGDIAEGYSVSREKKESFPLTVTSAQKNPTAFYLCASSTGISEQFFGPGTRLTVL
# B11: TCR22 (TCR, V domains shown)
# Valpha: AQSVAQPEDQVNVAEGNPLTVKCTYSVSGNPYLFWYVQYPNRGLQFLLKYITGDNLVKGSYGFEAEFNKSQTSFHLKKPSALVSDSALYFCAVRDDNAGNMLTFGGGTRLMVKP
# Vbeta: DTGVSQNPRHKITKRGQNVTFRCDPISEHNRLYWYRQTLGQGPEFLTYFQNEAQLEKSRLLSDRFSAERPKGSFSTLEIQRTEQGDSAMYLCASSLANTGELFFGEGSRLTVL
# B12: TCR23 (TCR, V domains shown)
# Valpha: LAKTTQPISMDSYEGQEVNITCSHNNIATNDYITWYQQFPSQGPRFIIQGYKTKVTNEVASLFIPADRKSSTLSLPRVSLSDTAVYYCLVGDIPSVDGGFKTIFGAGTRLFVKA
# Vbeta: EAQVTQNPRYLITVTGKKLTVTCSQNMNHEYMSWYRQDPGLGLRQIYYSMNVEVTDKGDVPEGYKVSRKEKRNFPLILESPSPNQTSLYFCASSTSLELDQPQHFGDGTRLSIL
# B13: TCR19 (TCR, V domains shown)
# Valpha: AQKVTQAQTEISVVEKEDVTLDCVYETRDTTYYLFWYKQPPSGELVFLIRRNSFDEQNEISGRYSWNFQKSTSSFNFTITASQVVDSAVYFCALLSSGGYNKLIFGAGTRLAVHP
# Vbeta: NAGVTQTPKFQVLKTGQSMTLQCAQDMNHEYMSWYRQDPGMGLRLIHYSVGAGITDQGEVPNGYNVSRSTTEDFPLRLLSAAPSQTSVYFCASSYLSPAAGFSYEQYFGPGTRLTVT
# B14: TCR18 (TCR, V domains shown)
# Valpha: AQTVTQSQPEMSVQEAETVTLSCTYDTSESDYYLFWYKQPPSRQMILVIRQEAYKQQNATENRFSVNFQKAAKSFSLKISDSQLGDAAMYFCAYRDNFNKFYFGSGTKLNVKP
# Vbeta: DSGVTQTPKHLITATGQRVTLRCSPRSGDLSVYWYQQSLDQGLQFLIQYYNGEERAKGNILERFSAQQFPDLHSELNLSSLELGDSALYFCASSGTGGAYNEQFFGPGTRLTVL
# Target: T1, MAGE B2 peptide on HLA-A*02:01
# Assay: multimer staining
row,binding result,Binder
1,recognises,B1
2,recognises,B2

# Target: T2, CT 83 peptide on HLA-B*44:02
# Assay: multimer staining
row,binding result,Binder
1,recognises,B3
2,recognises,B4
3,recognises,B5
4,recognises,B6

# Target: T3, MAGE A3 peptide on HLA-A*01:01
# Assay: multimer staining
row,binding result,Binder
1,recognises,B7
2,recognises,B8
3,recognises,B9
4,recognises,B10

# Target: T4, CT 83 peptide on HLA-A*02:01
# Assay: multimer staining
row,binding result,Binder
1,recognises,B11
2,recognises,B12
3,recognises,B13
4,recognises,B14
